38 sequences from the supplement of paper PMC7877785 can be followed below.

The data set is described as follows: self-splicing fitness, log relative to wild type (ln ratio); higher = more splicing; Tetrahymena group I intron in knt gene, E. coli kanamycin selection, DiMSum; sequences stand for … in CUCUCU…GGAGGGAAAAGUUAUCAGGCAUGCACCUGGUAGCUAGUCUUUAAACCAAUAGAUUGCAUCGGUUUAAAAGGCAAGACCGUCAAAUUGCGGGAAAGGGGUCAACAGCCGUUCAGUACCAAGUCUCAGGGGAAACUUUGAGAUGGCCUUGCAAAGGGUAUGGUAAUAAGCUGACGGACAUGGUCCUAACCACGCAGCCAAGUCCUAAGUCAACAGAUCUUCUGUUGAUAUGGAUGCAGUUCACAGACUAAAUGUCGGUCGGGGAAGAUGUAUUCUUCUCAUAAGAUAUAGUCGGACCUCUCCUUAAUGGGAGCUAGCGGAUGAAGUGAUGCAACACUGGAGCCGCUGGGAACUAAUUUGUAUGCGAAAGUAUAUUGAUUAGUUUUGGAGUACUCGUGGUCG
In short, it runs like this:
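Library with all eight P1ex-region intron nucleotides randomised, intron inside the knt kanamycin-resistance gene on pET-22b(+), in E. coli BL21(DE3). Cells grew overnight at 37°C or 30°C on LB agar with or without 25 μg/mL kanamycin (plus 100 μg/mL carbenicillin, 50 μM IPTG, 0.2% rhamnose), in six replicate transformations. Pooled colonies were amplicon-sequenced on Illumina HiSeq 2500. DiMSum fitness is the error-weighted combination of wild-type-normalised replicate fold changes, kanamycin versus none.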

± gives the uncertainty stated by the source.

As to GAAAAGCAAUAUUACGGCAA, the “self-splicing fitness (ln)” value by setting is: (30 °C) -0.142 ± 0.1; (37 °C) -0.719 ± 0.11. With AAACAGCAAUAUUACGUUUG, the “self-splicing fitness (ln)” value reads like this: (30 °C) -2.49 ± 0.1; (37 °C) -1.51 ± 0.099. The like results for UCACAGCAAUAUUACGUACU were, in that order, -2.82 ± 0.17 and -2.09 ± 0.22. As to CAAAAGCAAUAUUACGUAAG, the “self-splicing fitness (ln)” value by setting is: (30 °C) -0.419 ± 0.047; (37 °C) 0.0644 ± 0.059. The like results for CCCCAGCAAUAUUACGCCAC were, in that order, -3.09 ± 0.13 and -0.923 ± 0.16. As for GGCAAGCAAUAUUACGCGCU, the “self-splicing fitness (ln)” value is -3.35 ± 0.42 (30 °C) and -3.25 ± 0.43 (37 °C). Turning to GAGCAGCAAUAUUACGAGUU, the “self-splicing fitness (ln)” value reads like this: (30 °C) -2.48 ± 0.13; (37 °C) -1.1 ± 0.13. In the same order, the values of UCGCAGCAAUAUUACGUCAU are -3.77 ± 0.14 and -2.65 ± 0.13. For GACGAGCAAUAUUACGGUAU, the “self-splicing fitness (ln)” value is, setting by setting: (30 °C) -3.43 ± 0.19; (37 °C) -2.08 ± 0.26. For the sequence CGGCAGCAAUAUUACGUUAC, the “self-splicing fitness (ln)” value by setting is: (30 °C) -3.4 ± 0.2; (37 °C) -3.3 ± 0.33. Turning to UCGAAGCAAUAUUACGUCAA, the “self-splicing fitness (ln)” value is, setting by setting: (30 °C) -1.52 ± 0.11; (37 °C) -1.15 ± 0.1. In the same order, the values of UUUAAGCAAUAUUACGCGGA are -1.6 ± 0.098 and -0.0901 ± 0.084. In the same order, the values of CCACAGCAAUAUUACGUCUC are -3.01 ± 0.17 and -2.66 ± 0.16. Regarding ACCCAGCAAUAUUACGCACU, the “self-splicing fitness (ln)” value is, setting by setting: (30 °C) -0.41 ± 0.064; (37 °C) 0.0872 ± 0.077. Take UCCGAGCAAUAUUACGCUCA: the “self-splicing fitness (ln)” value is, setting by setting: (30 °C) -3.08 ± 0.32; (37 °C) -2.3 ± 0.47.

Regarding ACCAAGCAAUAUUACGAGUC, the “self-splicing fitness (ln)” value is, setting by setting: (30 °C) -3.65 ± 0.2; (37 °C) -1.25 ± 0.15. As to UCAAAGCAAUAUUACGUCAA, the “self-splicing fitness (ln)” value was -2.84 ± 0.23 (30 °C) and -2.71 ± 0.29 (37 °C).

In the case of UCGUAGCAAUAUUACGUACA, the “self-splicing fitness (ln)” value runs as follows: (30 °C) -1.71 ± 0.24; (37 °C) -1.73 ± 0.26. AAGGAGCAAUAUUACGUGUA: the “self-splicing fitness (ln)” value (37 °C) is -2.29 ± 0.27. As to CACCAGCAAUAUUACGUGGU, the “self-splicing fitness (ln)” value by setting is: (30 °C) -3.65 ± 0.1; (37 °C) -3.16 ± 0.14. Turning to AGAAAGCAAUAUUACGAAUU, the “self-splicing fitness (ln)” value runs as follows: (30 °C) -0.791 ± 0.089; (37 °C) -1.32 ± 0.11. Regarding UCUGAGCAAUAUUACGGGUU, the “self-splicing fitness (ln)” value (30 °C) is -2.32 ± 0.17 and the “self-splicing fitness (ln)” value (37 °C) is -2.5 ± 0.24. The like results for AAAUAGCAAUAUUACGAAAU were, in that order, -3.02 ± 0.15 and -1.2 ± 0.13. In the same order, the values of UCCCAGCAAUAUUACGCGAA are -2.11 ± 0.16 and -1.07 ± 0.14. For the sequence CGGAAGCAAUAUUACGAGCU, the “self-splicing fitness (ln)” value was -2.93 ± 0.21 (30 °C) and -3.07 ± 0.27 (37 °C). UUACAGCAAUAUUACGUCAG: the “self-splicing fitness (ln)” value (30 °C) is -0.769 ± 0.067 and the “self-splicing fitness (ln)” value (37 °C) is -0.337 ± 0.09.

With ACGUAGCAAUAUUACGGCCU, the “self-splicing fitness (ln)” value is, setting by setting: (30 °C) -0.463 ± 0.12; (37 °C) 0.149 ± 0.13. For ACUCAGCAAUAUUACGACAU, the “self-splicing fitness (ln)” value reads like this: (30 °C) -0.385 ± 0.011; (37 °C) 0.0786 ± 0.032.

Regarding GAUCAGCAAUAUUACGCUAA, the “self-splicing fitness (ln)” value reads like this: (30 °C) -1.11 ± 0.12; (37 °C) -0.316 ± 0.15. The like results for AUUUAGCAAUAUUACGACAG were, in that order, -2.19 ± 0.24 and 0.257 ± 0.26. In the case of GCAUAGCAAUAUUACGCGAG, the “self-splicing fitness (ln)” value (30 °C) is -2.42 ± 0.23 and the “self-splicing fitness (ln)” value (37 °C) is -1.72 ± 0.17.

Take CCAAAGCAAUAUUACGGAUU: the “self-splicing fitness (ln)” value runs as follows: (30 °C) -3.94 ± 0.25; (37 °C) -3.55 ± 0.35.

For the sequence GGCGAGCAAUAUUACGUGUC, the “self-splicing fitness (ln)” value reads like this: (30 °C) -4.05 ± 0.21; (37 °C) -1.46 ± 0.16.

AUUCAGCAAUAUUACGUCAU: the “self-splicing fitness (ln)” value runs as follows: (30 °C) -0.863 ± 0.059; (37 °C) 0.0811 ± 0.071. As for CGACAGCAAUAUUACGAAUA, the “self-splicing fitness (ln)” value runs as follows: (30 °C) -2.16 ± 0.18; (37 °C) -3.12 ± 0.3. As for UACGAGCAAUAUUACGCGGG, the “self-splicing fitness (ln)” value was -2.83 ± 0.22 (30 °C) and -2.41 ± 0.45 (37 °C). In the same order, the values of GGAUAGCAAUAUUACGACUU are 0.215 ± 0.18 and 0.847 ± 0.17. In the same order, the values of UAUCAGCAAUAUUACGAAGU are -2.82 ± 0.28 and -0.868 ± 0.29.
